Data reported in article PMC7199964, “Grifolin, neogrifolin and confluentin from the terricolous polypore Albatrellus flettii suppress KRAS expression in human colon cancer cells”.

Columns and labels:
IMP1 wild type [1] = target: T1, IMP1 wild type (UniProt Q9NZI8 1-577); assay: fluorescence polarization; FP: 300 nM IMP1, 10 nM probe (inhibitor assays), binding buffer stock 50 mM Tris-Cl pH 7.4, 12.5 mM EDTA pH 8, 25% glycerol, 0.01% Triton-X, 37 C 30 min; EMSA:; conditions: protein: recombinant; label: 3' 6-FL (fluorescein)
T1 sequence (Q9NZI8 whole entry): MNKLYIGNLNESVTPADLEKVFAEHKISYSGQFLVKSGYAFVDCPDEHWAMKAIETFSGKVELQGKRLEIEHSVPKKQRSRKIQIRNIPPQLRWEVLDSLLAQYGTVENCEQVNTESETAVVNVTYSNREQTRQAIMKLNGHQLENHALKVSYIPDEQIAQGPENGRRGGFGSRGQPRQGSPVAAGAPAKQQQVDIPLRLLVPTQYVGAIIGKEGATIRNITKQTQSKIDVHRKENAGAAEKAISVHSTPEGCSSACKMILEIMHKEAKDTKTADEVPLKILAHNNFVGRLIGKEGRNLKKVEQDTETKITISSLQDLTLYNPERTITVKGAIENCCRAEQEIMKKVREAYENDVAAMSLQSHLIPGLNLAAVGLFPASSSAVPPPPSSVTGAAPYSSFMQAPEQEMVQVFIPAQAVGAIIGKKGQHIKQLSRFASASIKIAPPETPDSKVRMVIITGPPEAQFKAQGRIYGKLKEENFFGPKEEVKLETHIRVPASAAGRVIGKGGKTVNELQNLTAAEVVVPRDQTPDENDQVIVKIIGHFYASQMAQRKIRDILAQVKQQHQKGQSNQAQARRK

KH1to4 IMP1 = KH1to4 IMP1 (UniProt Q9NZI8 195-553); assay: as above; conditions: protein: recombinant; label: 3' 6-FL (fluorescein)
Sequence of KH1to4 IMP1 (Q9NZI8 195-553): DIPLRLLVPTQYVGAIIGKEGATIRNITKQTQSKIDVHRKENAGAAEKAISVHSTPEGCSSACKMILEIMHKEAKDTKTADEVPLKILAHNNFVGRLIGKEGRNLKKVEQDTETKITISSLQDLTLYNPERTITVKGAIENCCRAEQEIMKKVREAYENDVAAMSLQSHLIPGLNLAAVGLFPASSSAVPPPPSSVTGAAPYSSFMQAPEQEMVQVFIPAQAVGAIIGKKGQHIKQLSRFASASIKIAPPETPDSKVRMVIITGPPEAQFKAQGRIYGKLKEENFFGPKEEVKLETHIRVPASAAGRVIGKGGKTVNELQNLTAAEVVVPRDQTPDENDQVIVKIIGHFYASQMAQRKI

KH3&4 IMP1 (KH34) = KH3&4 IMP1 (KH34) (UniProt Q9NZI8 405-553); assay: fluorescence polarization; confluentin, no effect; FP: 300 nM IMP1, 10 nM probe (inhibitor assays), binding buffer stock 50 mM Tris-Cl pH 7.4, 12.5 mM EDTA pH 8, 25% glycerol, 0.01% Triton-X, 37 C 30 min; EMSA:; conditions: protein: recombinant; label: 3' 6-FL (fluorescein)
Sequence of KH3&4 IMP1 (KH34) (Q9NZI8 405-553): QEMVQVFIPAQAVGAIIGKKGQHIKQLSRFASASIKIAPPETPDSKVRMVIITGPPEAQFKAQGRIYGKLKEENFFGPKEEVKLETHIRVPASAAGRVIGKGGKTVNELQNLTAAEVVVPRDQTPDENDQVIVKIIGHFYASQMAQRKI

IMP1 wild type [2] = target: T1, IMP1 wild type; assay: fluorescence polarization; grifolin up to 100 uM, no effect; FP: 300 nM IMP1, 10 nM probe (inhibitor assays), binding buffer stock 50 mM Tris-Cl pH 7.4, 12.5 mM EDTA pH 8, 25% glycerol, 0.01% Triton-X, 37 C 30 min; EMSA:; conditions: protein: recombinant; label: 3' 6-FL (fluorescein)
IMP1 wild type [3] = target: T1, IMP1 wild type; assay: EMSA; IMP1 0-540 nM; smallest region with affinity; FP: 300 nM IMP1, 10 nM probe (inhibitor assays), binding buffer stock 50 mM Tris-Cl pH 7.4, 12.5 mM EDTA pH 8, 25% glycerol, 0.01% Triton-X, 37 C 30 min; EMSA:; conditions: protein: recombinant; (radiolabeled)

Question: Does AAAUUAGGGCCCAAUUAAUAAUCAGCAAGAAUUUGAUCG (ssRNA) [39-nt CD44 RNA (nts 2862-2900)] bind (IMP1 wild type [1])?
Answer: binds

Question: Does AUGGAGAAACCUGUCUCUUGGAUAUUCUCGACACAGCAGGUCAU (ssRNA) [44-nt KRAS RNA (nts 142-185)] bind (KH1to4 IMP1)?
Answer: binds

Question: Does AUGGAGAAACCUGUCUCUUGGAUAUUCUCGACACAGCAGGUCAU (ssRNA) [44-nt KRAS RNA (nts 142-185)] bind (KH3&4 IMP1 (KH34))?
Answer: binds

Question: Does AUGGAGAAACCUGUCUCUUGGAUAUUCUCGACACAGCAGGUCAU (ssRNA) [44-nt KRAS RNA (nts 142-185)] bind (IMP1 wild type [2])?
Answer: binds

Question: Does GAAACCUGUCUCUUGGAUAUUCUCGACACAGCAGGUCAU (ssRNA) [39-nt KRAS RNA nts 147-185] bind (IMP1 wild type [3])?
Answer: binds
